Assay results reported in publication PMC5378477, “Crystal structure and dynamics of a lipid-induced potential desensitized-state of a pentameric ligand-gated channel” (eLife, 2017).

Molecular target: the molecule itself
Assay: crystal structure; GLIC wt in DDM with 50 uM DHA and 0.5 mg/ml E. coli polar extract; sitting drop at 4 °C, sodium acetate pH 3.9-4.2, ammonium sulfate, PEG4000; 3.25 Å

B1: GLIC wt (natural protein)
chain: QDMVSPPPPIADEPLTVNTGIYLIECYSLDDKAETFKVNAFLSLSWKDRRLAFDPVRSGVRVKTYEPEAIWIPEIRFVNVENARDADVVDISVSPDGTVQYLERFSARVLSPLDFRRYPFDSQTLHIYLIVRSVDTRNIVLAVDLEKVGKNDDVFLTGWDIESFTAVVKPANFALEDRLESKLDYQLRISRQYFSYIPNIILPMLFILFISWTAFWSTSYEANVTLVVSTLIAHIAFNILVETNLPKTPYMTYTGAIIFMIYLFYFVAVIEVTVQHYLKVESQPARAASITRASRIAFPVVFLLANIILAFLFFGF
notes: GLIC, prokaryotic pH-gated pentameric ligand-gated ion channel; construct as in Hilf and Dutzler 2009 and Bocquet et al. 2009; residues 5-315 are named in the structure; Homopentamer; Crystallised with 50 uM DHA and E. coli polar lipids; also called GLIC-pH4-DHA (the structure solved here); source: E. coli C43, purified (amylose resin, SEC in DDM); not shown: MBP, N-terminal, cleaved
Q: B1 was tested. Which “stoichiometry N” value did it give?
A: The value was 5.
